Paper PMC8093152, “Biosynthesis of the Tricyclic Aromatic Type II Polyketide Rishirilide: New Potential Third Ring Oxygenation after Three Cyclization Steps” (Molecular Biotechnology, 2021)

Columns and labels:
[1] = target: the molecule itself; assay: crystal structure; apo RslO1, sitting drop vapor diffusion at 20 °C, 0.1 M HEPES pH 7.5, 36% polyethylene glycol 600 (seeded); space group P2(1)2(1)2(1); 1.60 Å
[2] = target: the molecule itself; assay: crystal structure; apo RslO4, sitting drop vapor diffusion at 20 °C, 6% ethanol, 0.1 M ammonium acetate pH 5.5, 1.5 M phosphate pH 7.0; space group P3(2)21, two monomers in the asymmetric unit; 1.8 Å

Protein	stoichiometry N [1]	stoichiometry N [2]
RslO1 monooxygenase, C-terminal His-tag recombinant protein (enzyme, Streptomyces bottropensis Gö C4/4, RslO1, FMN-dependent luciferase-like monooxygenase of the rishirilide (Rsl) gene cluster of Streptomyces bottropensis Gö C4/4; gene amplified from cosmid 4 and cloned between NdeI and XhoI of pET21a(+); predicted mass of the tagged protein 40.04 kDa; also called monooxygenase RslO1; FMN-dependent luciferase-like monooxygenase RslO1; source: E. coli BL21 (DE3) Star, pET21a(+), purified (Ni-NTA …)) MKFGINLFPTVGPAEKSAGQHFEESLRLAELADELGFHHVKTVEHYFHEYGGYSPDPVTFLAAAAARTRRVRLVTGAVLPVFTHPLKLAGKLAMLDNISQGRLDVGFGRAFLPDEFTAFEISMDESRARFDEGVEAVRRLWAEEDVVWEGTFHRFGPVTMLPRTWQRPHPRILVATAKTPASAEAAARAGHGVMLVPSINPREQVQKTLSLYRDAASAAGFKPTEEDIHMSYNCYLAEDGQEARQKGGQASERANRALASAVSAWRETRSADYPGYEKIVEKAGRGDFDRAVAERKALVGTPDEVRAAIDDIRGWFGDFTISLQVISGAMPFEESARTMRLFAEHLLPHYAAND	2	–
RslO4 monooxygenase, C-terminal His-tag recombinant protein (enzyme, Streptomyces bottropensis Gö C4/4, RslO4, monooxygenase of the rishirilide (Rsl) gene cluster of Streptomyces bottropensis Gö C4/4; gene amplified from cosmid 4 and cloned between NdeI and XhoI of pET21a(+); rslO4 gene printed as 300 bps; predicted mass of the tagged protein 12.17 kDa; also called monooxygenase RslO4; cofactor-independent monooxygenase RslO4; source: E. coli BL21 (DE3) Star, pET21a(+), purified (Ni-NTA HisTrap FF, …)) MAVVFVNKLTLIGDAEEFESRYEAVGAFMETQPGLVRYSLVRSTKDDSVYFNIAEWDDEDTFRKALAEPEFRRRLDALTGLIKGEPHLSLPVRQGRAAQV	–	2
